Reference: the supplement of paper PMC10567573
± gives the standard deviation.

Experiment: protein stability index of a GFP-peptide fusion (GPS, HEK-293T) (PSI 1-6); higher = more stable
[1] = treatment: DMSO, c terminus: a fixed tail appended
[2] = treatment: MLN4924 1 uM, 8 h, c terminus: a fixed tail appended
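Further: 24-mer peptide tiles fused after GFP, lentivirally expressed, FACS-sorted into six equal bins by GFP/DsRed ratio, decoded by Illumina sequencing, PSI is the read-weighted mean bin number.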

Sequence	protein stability index [1]	protein stability index [2]	protein stability index (treatment: DMSO, c terminus: native)	protein stability index (treatment: MLN4924 1 uM, 8 h, c terminus: native)
FKLLAGRWPFDHNDFGVFLCKLFP [EDNRA]	2.34 ± 0.37	2.5 ± 0.38	–	–
FKRTIQGSIEYSCPASNECEITKR [ESRRA]	3.88 ± 0.23	4.19 ± 0.23	–	–
FKYINTVISCTIFIVGMVGNATLL [EDNRA]	3.56 ± 0.57	2.89 ± 0.61	–	–
FMTTNVPNVYPAAPQGGMAALNMS [ADD1]	2.73 ± 0.41	2.87 ± 0.36	–	–
FPALLSTGEFLKLPFERLAFVLSS [KLHL13]	2.95 ± 0.74	3.08 ± 0.73	–	–
FPGRPMGHLSKDVDENDSHEGEDQ [DLC1]	4.7 ± 0.38	5.06 ± 0.31	–	–
FQDKRNLYLIMEFLPGGDMMTLLM [STK38L]	3.34 ± 0.31	–	–	–
FQEQVEKLKALHVDSAEYSCLKAI [NR2F2]	3.61 ± 0.2	3.74 ± 0.23	–	–
FQLPERGSRLCLYEDGTELTEDYF [DFFB]	3.71 ± 0.44	3.7 ± 0.47	–	–
FREDGAYEFNPDFLEEAHEWNQKR [N4BP2L1]	4.71 ± 0.16	4.53 ± 0.26	–	–
FRHLRLQYIISDLASARIIEQDAV [GMCL1]	2.6 ± 0.73	2.44 ± 0.48	–	–
FSDPSQSDPETKDFWLNMAALTEA [FCHO1]	3.4 ± 0.47	3.79 ± 0.37	–	–
FSEQVFKVASSDLVNMGISVVSYT [FLOT1]	2.66 ± 0.72	2.39 ± 0.44	–	–
FSLVGKRAISTSVCVRAHESVVKS [COX4I1]	2.75 ± 0.14	2.94 ± 0.3	–	–
FVDSIRRQFEFSVDSFQIILDSLL [TENT5C]	2.33 ± 0.37	2.31 ± 0.14	–	–
FVGYNPYSHLAYNNYRLGGNPSTN [SMARCE1]	2.87 ± 0.21	2.54 ± 0.2	–	–
FVQRSGNYFVTMFDDYSATLPLTL [SLC6A17]	2.65 ± 0.18	2.65 ± 0.55	–	–
FVRGDHRDNSPFDGPGGNLAHAFQ [MMP1]	2.34 ± 0.6	3.06 ± 0.29	–	–
FWPAKVMQKEDNQVDVRFFGHHHQ [ZMYND11]	2.71 ± 0.52	2.47 ± 0.18	–	–
FYMFAWTHVTLLITVTQSHLVIQN [CDS1]	3.01 ± 0.38	3 ± 0.3	–	–
GARARGVAMLGVFLVSAVAHEYIF [SOAT2]	–	3.591 ± 0.02	–	–
GARPPPTPPASPPPSVLISKNEVG [KMT2E]	4.91 ± 0.12	5.08 ± 0.18	–	–
GATCMFVASKMKETIPLTAEKLCI [CCND1]	2.34 ± 0.34	1.99 ± 0.41	–	–

Sequence	protein stability index [1]	protein stability index [2]	protein stability index (treatment: DMSO, c terminus: native)	protein stability index (treatment: MLN4924 1 uM, 8 h, c terminus: native)
GCFTLPRSEPIRPIDPAAWVSHTA [DVL3]	2.81 ± 0.25	3 ± 0.42	–	–
GCSAVSEPASESVVGALPAEHQFS [TRAF3IP2]	4.38 ± 0.34	4.6 ± 0.27	–	–
GDEISIKKKNTNKQEMGTYLRFIV [ZMYND11]	2.12 ± 0.087	2.12 ± 0.24	–	–
GDFDFDEVKFPNASDMFRRLRDAG [MYORG]	3.98 ± 0.16	3.98 ± 0.2	–	–
GEDSSTSSSTPLEDEEPQEPNRLE [RTN2]	5.56 ± 0.26	5.57 ± 0.25	–	–
GELGSIGDHERAIDFSPYLEPLGA [CEBPB]	4.21 ± 0.6	4.18 ± 0.32	–	–
GEQPQFWSKTQVLDWISYQVEKNK [ELF3]	3.02 ± 0.13	3.29 ± 0.33	–	–
GETGSGDQAGGEGKHITVFKTYIS [MYOZ1]	3.97 ± 0.14	4.06 ± 0.15	–	–
GFFSSAFQARLSGNNLHNASIPEH [POMT2]	2.81 ± 0.44	3.07 ± 0.35	–	–
GGCYFGPDVTQQLLQKYNMQFLIR [PPEF2]	1.92 ± 0.29	2.2 ± 0.37	–	–
GGGGTQRLPRAIGMSLAKELIFSA [AUH]	2.54 ± 0.21	2.69 ± 0.58	–	–
GGNVECIKLLQSSGADFHKKDKCG [ANKRD44]	4.48 ± 0.17	4.38 ± 0.1	–	–
GGSGGGAGGAGGGVTEEQEGFADG [JUNB]	5.5 ± 0.087	5.42 ± 0.43	–	–
GHHAEKLPAGAGAPKAGLEEAPAV [TNFSF13B]	5.22 ± 0.3	5.27 ± 0.2	–	–
GHSFCRPCLCLSWEEAQSPANCPA [TRIM43]	3.47 ± 0.34	3.66 ± 0.29	–	–
GIVGGFTQMIREGGARSLWRGNGI [SLC25A25]	2.22 ± 0.093	2.27 ± 0.2	–	–
GKKFLLLSINRYERKKNLTLALEA [ALG2]	2.35 ± 0.88	2.6 ± 0.39	–	–
GKKYNTMLGYKRHLALHAASSGDL [PLAGL1]	3.15 ± 0.12	3.28 ± 0.27	–	–
GKLVLSSLPKRLCLVCGDVASGYH [ESRRA]	2.38 ± 0.45	1.97 ± 0.33	–	–
GLDPCLLEDELDKSVQGTGLAFIA [SLC6A17]	3.28 ± 0.31	3.28 ± 0.44	–	–
GLPGPEAARSGDAAANKLFHYIPG [PLEKHN1]	3.93 ± 0.38	4.15 ± 0.42	–	–
GLPGSFIKEVQKGGPADLAGLEDE [PDZK1]	5.59 ± 0.14	5.37 ± 0.25	–	–
GLRQRASNKVQDSAPVETPRGKPP [HMOX1]	5 ± 0.25	4.83 ± 0.2	–	–

Sequence	protein stability index [1]	protein stability index [2]	protein stability index (treatment: DMSO, c terminus: native)	protein stability index (treatment: MLN4924 1 uM, 8 h, c terminus: native)
GLSPYSDYEFRVVAVNNIGRGPPS [PTPRD]	2.41 ± 0.35	3.14 ± 0.033	–	–
GLTFQGLLPLTELSVCPLEGSREH [PLEKHN1]	3.57 ± 0.35	3.62 ± 0.35	–	–
GPGSKRDAHFCAVCSDYASGYHYG [ESR2]	2.42 ± 0.2	2.65 ± 0.32	–	–
GPMEEVERQVLPDPEVLEAVGDRQ [PBXIP1]	5.62 ± 0.25	5.59 ± 0.21	–	–
GPPAPVGPPHARISQHGDPLLSNT [EMID1]	4.37 ± 0.24	4.55 ± 0.72	–	–
GPSNTSHSSSRDSHLSNGLDPVAE [C2CD2L]	5.337 ± 0.041	5.23 ± 0.089	–	–
GQYRANEGTSSIVMEIQKQIEKKE [TAF7L]	5.06 ± 0.35	5.16 ± 0.46	–	–
GRATKRRKKSGDLKKAKVQVERMR [FBXO34]	4.25 ± 0.072	4.26 ± 0.65	–	–
GRAVDQDKVLRFAQQIRLHHFNSS [MYORG]	2.51 ± 0.27	2.75 ± 0.34	–	–
GRGGEPRAYFMSDTREEKRFLGEG [CHGB]	4.23 ± 0.2	4.44 ± 0.27	–	–
GRLPRIPQVLSQEFTELLKVMIHP [WEE1]	2.48 ± 0.53	2.47 ± 0.45	–	–
GSGQRVPALEEAPDSHQKRPQHSH [ELOA2]	5.26 ± 0.17	5.29 ± 0.33	–	–
GSKGEKDLGASSLHVNGESLEMDS [EHMT1]	5.28 ± 0.26	5.39 ± 0.27	–	–
GSSGPAGLTLGRSFSNYRPFEPQA [SEPHS2]	3.22 ± 0.12	3.28 ± 0.16	–	–
GSSNVGINRWRFLLQCLEDLDANL [CRY1]	2.48 ± 0.52	2.4 ± 0.13	–	–
GTLNREDLSRLVNCLTGEGEDTRL [CIB1]	4.25 ± 0.32	4.48 ± 0.31	–	–
GTSTWQFNFKFNLTEDMYAQDSIE [CNOT7]	2.4 ± 0.2	2.59 ± 0.28	–	–
GVGAVPGPGTPTGPSLPSKRESPG [ZBTB22]	5.41 ± 0.29	5.21 ± 0.14	–	–
GVGGAERLVLDAALALQARGCSVK [ALG2]	3.22 ± 0.24	3.28 ± 0.48	–	–
GVGKAIEEELQEIASEPTNKHLFY [MATN2]	4.75 ± 0.37	4.46 ± 0.11	–	–
GVSRGVGFIRFDKRIEAEEAIKGL [ELAVL3]	3.572 ± 0.035	4.05 ± 0.57	–	–
GYSTPADIWSTACMAFELATGDYL [SRPK2]	2.1 ± 0.33	2.54 ± 0.5	–	–
GYVANSSNCISGVCSVRGGEGRSR [KRT71]	3.47 ± 0.2	3.73 ± 0.43	–	–

Sequence	protein stability index [1]	protein stability index [2]	protein stability index (treatment: DMSO, c terminus: native)	protein stability index (treatment: MLN4924 1 uM, 8 h, c terminus: native)
HAAASNGQINVVKHLLNLGVEIDE [ANKRD44]	4.06 ± 0.35	4.16 ± 0.25	–	–
HCAAVTPAGCMYIHGGVVNIHENK [KLHDC10]	2.86 ± 0.098	3.12 ± 0.49	–	–
HFKKQTIYRFLKLHPRGKNNFSPL [FEM1C]	2.71 ± 0.32	1.96 ± 0.14	–	–
HGVDLSALRGAAVDEYFRQPVVDT [CARM1]	4.13 ± 0.41	4.29 ± 0.56	–	–
HIDSSCSSFIKTEPSSPASLTDSV [ESRRG]	4.29 ± 0.18	4.23 ± 0.2	–	–
HIENGPFSLEQQLDDEDDDEEDCP [SRPK2]	5.44 ± 0.4	5.46 ± 0.2	–	–
HLAPSEAKAADSPTRNDLESGLGH	5.14 ± 0.34	5.37 ± 0.058	–	–
HLMPFRQHCRQSLASRIRSNKKML [KLHL14]	2.39 ± 0.11	2.34 ± 0.1	–	–
HLPADSEVTLEANPTSAPGSRLAE [RSAD1]	5.49 ± 0.077	5.39 ± 0.24	–	–
HLRPELRSQMQGPRTRARLGANEV [KLHL12]	4.23 ± 0.043	4.22 ± 0.44	–	–
HMLNQVESKVKDILSKVQKNHVGK [FAM98B]	2.55 ± 0.51	2.36 ± 0.32	–	–
HPKPKLVRVLESLLVSLVTTVVVF [CLCN6]	3.49 ± 0.47	3.56 ± 0.25	–	–
HPMYRRLVHSAVDVPTIQEKVNEG [ZMYND11]	4.11 ± 0.36	4.3 ± 0.17	–	–
HQRTHSEEETYKCLECGKSFCHGS [ZNF449]	4.63 ± 0.3	4.59 ± 0.3	–	–
HRGCGDGCCCPSCYRRYRFTGFY [KRTAP19-2]	–	–	2.83 ± 0.59	3.31 ± 0.47
HTLPVNRETLKRKVSGNRCASPVT [ESR2]	4.07 ± 0.14	4.24 ± 0.15	–	–
HVLHHGTGKWYELQDLQVTDILPQ [USP39]	2.82 ± 0.4	2.95 ± 0.39	–	–
HVSDEDNNADLCLTDDKQVLNTQG [DLC1]	5.34 ± 0.23	5.46 ± 0.13	–	–
ICFCCEEFQPAKCTDKENALKLFP [FAM189A2]	2.37 ± 0.036	2.58 ± 0.25	–	–
ICGLQQDEEVSSLTCDALTELLAK [CCND2]	3.48 ± 0.29	3.74 ± 0.36	–	–
